For test [1], the target named is T1, human protein S (derived from human serum; Enzyme Research Laboratories) (human, UniProt P07225 42-676).
T1 construct: Homologue of Gas6 used as specificity control
T1 sequence (looked up): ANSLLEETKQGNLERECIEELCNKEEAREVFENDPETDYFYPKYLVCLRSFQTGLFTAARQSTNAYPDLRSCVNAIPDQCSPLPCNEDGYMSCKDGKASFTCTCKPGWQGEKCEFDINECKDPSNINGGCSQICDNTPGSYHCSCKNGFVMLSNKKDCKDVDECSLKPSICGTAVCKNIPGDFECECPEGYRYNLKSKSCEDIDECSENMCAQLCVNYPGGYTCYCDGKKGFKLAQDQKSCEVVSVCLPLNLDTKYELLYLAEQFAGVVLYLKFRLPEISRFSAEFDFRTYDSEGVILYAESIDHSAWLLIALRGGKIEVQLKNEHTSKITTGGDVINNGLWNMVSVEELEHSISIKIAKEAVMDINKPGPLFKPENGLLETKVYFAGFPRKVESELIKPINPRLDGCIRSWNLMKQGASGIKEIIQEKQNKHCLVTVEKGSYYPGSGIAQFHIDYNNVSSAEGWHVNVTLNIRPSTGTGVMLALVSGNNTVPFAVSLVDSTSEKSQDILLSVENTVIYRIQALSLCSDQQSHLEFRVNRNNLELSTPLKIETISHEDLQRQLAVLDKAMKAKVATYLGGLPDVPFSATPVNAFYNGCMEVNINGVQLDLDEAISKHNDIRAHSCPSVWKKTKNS
The experiment in a line: ELISA: human protein S coated directly on the plate (2 µg/mL); biotinylated test antibody; streptavidin-HRP/TMB (Example 6, method of Example 5(5)) [F]. The procedure:
First, a 2 μg/mL solution of the antigen (prepared from each antigen with PBS (manufactured by Nacalai Tesque, Inc.)) was dispensed at 50 μL/well to a 96-well plate for ELISA (manufactured by Nalge Nunc International), and the plate was left standing overnight at 4° C. for adsorption. The plate was washed five times with Tween 20-PBS. Then, 1% BSA-PBS (manufactured by Nacalai Tesque, Inc.) was added thereto at 300 μL/well, and the plate was left standing at room temperature for 1 hour for blocking and washed five times with Tween 20-PBS (manufactured by Wako Pure Chemical Industries Ltd.). Next, the hybridoma culture supernatant was dispensed thereto as a test substance at 50 μL/well, and the plate was left standing at room temperature for 1 hour and then washed five times with Tween 20-PBS. Next, polyclonal goat anti-mouse immunoglobulins/HRP (Dako Denmark A/S, P0447) diluted 2000-fold with 1% BSA-PBS was dispensed thereto at 50 μL/well, and the plate was left standing at room temperature for 1 hour. The plate was washed five times with Tween 20-PBS, and TMB (manufactured by Sigma-Aldrich Co. LLC) was added thereto at 50 μL/well and reacted. At an appropriate point in time, the reaction was terminated by the addition of 1 N hydrochloric acid (manufactured by Wako Pure Chemical Industries Ltd.) at 50 μL/well. The absorbance at a sample wavelength of 450 nm and a reference wavelength of 570 nm (450 nm-570 nm) was measured using a plate reader (Spectra Max, manufactured by Molecular Devices, LLC).
The binding activity of the obtained antibodies against human protein S was measured in the same way as in Example 5(5). […] The secondary detection reagent used was Streptavidin HRP Conjugate (manufactured by R&D Systems, Inc.) diluted 200-fold with 1% BSA-PBS.

In test [2] the target is T2, C-terminally FLAG-tagged rat Gas6 recombinant protein (rGas6-F) (rat, UniProt Q63772 28-674, limits assumed, gamma-carboxylated glutamic acid residues in the Gla domain (producer cells co-express rat VKOR and human GGCX); positions not given).
T2 construct: also called rat Gas6-F
T2 sequence (looked up): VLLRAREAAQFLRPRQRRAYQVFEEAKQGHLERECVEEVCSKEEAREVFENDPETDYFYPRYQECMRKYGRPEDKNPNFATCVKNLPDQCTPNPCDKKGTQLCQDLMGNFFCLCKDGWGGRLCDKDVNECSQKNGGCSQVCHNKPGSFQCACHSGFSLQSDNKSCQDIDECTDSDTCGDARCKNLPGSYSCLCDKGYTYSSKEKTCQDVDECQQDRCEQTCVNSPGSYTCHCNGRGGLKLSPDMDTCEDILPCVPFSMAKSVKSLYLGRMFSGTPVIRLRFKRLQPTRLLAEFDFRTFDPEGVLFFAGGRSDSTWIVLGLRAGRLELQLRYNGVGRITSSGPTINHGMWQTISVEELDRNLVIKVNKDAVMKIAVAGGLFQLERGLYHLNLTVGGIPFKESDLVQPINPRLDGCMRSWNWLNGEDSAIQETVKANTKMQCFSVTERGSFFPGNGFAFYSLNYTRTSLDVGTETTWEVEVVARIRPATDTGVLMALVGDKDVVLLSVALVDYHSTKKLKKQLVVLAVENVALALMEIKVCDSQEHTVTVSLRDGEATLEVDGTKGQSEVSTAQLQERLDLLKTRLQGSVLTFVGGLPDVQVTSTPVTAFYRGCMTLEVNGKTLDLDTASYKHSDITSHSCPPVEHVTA
Put plainly: ELISA: rGas6-F (1 µg/mL) captured on coated anti-FLAG M2 antibody; biotinylated test antibody; streptavidin-HRP/TMB; absorbance 450-570 nm, N=2 (Example 6) [C]. The protocol:
First, 2 μg/mL anti-FLAG antibody [Monoclonal ANTI-FLAG M2 antibody produced in mouse (manufactured by Sigma-Aldrich Co. LLC) diluted with PBS (manufactured by Nacalai Tesque, Inc.)] was dispensed at 50 μL/well to a 96-well plate for ELISA (manufactured by Nalge Nunc International), and the plate was left standing overnight at 4° C. for adsorption. After removal of the immobilization solution, 1% BSA-PBS (manufactured by Nacalai Tesque, Inc.) was added thereto at 300 μL/well, and the plate was left standing at room temperature for 1 hour for blocking and washed five times with Tween 20-PBS (manufactured by Wako Pure Chemical Industries Ltd.).
Each antibody solution was dispensed thereto at 50 μL/well, and the plate was left standing at room temperature for 1 hour. This plate was washed five times with Tween 20-PBS. Then, Streptavidin HRP Conjugate (manufactured by R&D Systems, Inc.) diluted 200-fold with 1% BSA-PBS was dispensed thereto at 50 μL/well, and the plate was left standing at room temperature for 1 hour. This plate was washed five times with Tween 20-PBS, and TMB (manufactured by Sigma-Aldrich Co. LLC) was added thereto at 50 μL/well and reacted. […] The absorbance at a sample wavelength of 450 nm and a reference wavelength of 570 nm (450 nm-570 nm) was measured using a plate reader.

B1: anti-human Gas6 mouse monoclonal antibody KM5321 (KM5321-mKG1 antibody) (antibody, V domains shown)
VH: QIQLVQSGPELKKPGETVKISCRASGYTFTNYGMNWVKQAPGKGLKWMGWINTNTGEPTYTEEFKGRFAFSLETSATTAYLQINDLKNEDTATYFCARDEGWFVYWGQGTLITVSA
VL: ETTVTQSPASLSVATGEKVTIRCITSTDIDDDMNWYQQKPGEPPKLLISEGNTLRPGVPSRFSSSGYGTDFVFTIENTLSEDVADYYCLQTDSVPLTFGAGTKLELK
notes: Hybridoma-derived mouse IgG1, kappa; also called KM5321 antibody
Take B1: the binding result in test [1] is “no binding (tested: 5 µg/mL)”. In addition, the “EC50 (read off the curve)” value in test [2] is approximately 4 ng/mL.

B2: anti-human Gas6 mouse monoclonal antibody KM5320 (KM5320-mKG1 antibody) (antibody, V domains shown)
VH: QIQLVQSGPELKKPGETVKISCKASGYTFTNYGMNWVKQAPGKGLKWMGWINTETGEPTYSDDFKGRFAFSLETSATTAYLQINNLRNEDMATYFCAREDGYYGTLDYWGQGTSVTVSS
VL: SIVMTQTPKFLLVSAGDRVTITCKASQSVSNDVAWYQQKPGQSPKVLIYYASNRYTGVPDRFTGSGYGTDFTFTISTVQAEDLAVYFCQQDYSSPWTFGGGTKLEIK
notes: Hybridoma-derived mouse IgG1, kappa; also called KM5320 antibody
As to B2, the binding result in test [1] is “no binding (tested: 5 µg/mL)”. In addition, the “EC50 (read off the curve)” value in test [2] is approximately 5 ng/mL.

These data come from patent US20180339041A1 (Kyowa Kirin, published 2018).
